This series has as its system F1*sub RNA substrate (template-directed ligation). Description: fraction ligated after 30 min (ligated reads / total reads); higher = more ligase activity; sequences stand for … in GAGACCGCAACTGAAAAGTTGT…AGTTCTGCACGTAGAAGCAAAAGGC
The note with it: 42 °C. The method in brief:
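Templates from an oligo pool were PCR-amplified, transcribed with T7 and gel-purified to give the ribozyme variants. Ligated and unligated products were separated on gel, reverse transcribed using barcoded primers, and read on a MiSeq. A quality filter of ≥20 was applied to core bases. Fraction ligated was taken as ligated reads as a share of all reads per variant.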
The sequence “TATCATTTCGTAAGACACTTTGGATGGGTTGA [2d110]” yielded a fraction ligated of 0.807.
“TATCATTTCGTAAGACACTTTGGATGGTTGA [3d1153]” returned a fraction ligated of 0.101.
The figure for “TATCATTTCGTAAGACACTTTGGTGGGTTGA [3d1151]” is 0.1.
To “TATCATTTCGTAAGACATTTGGATGGGTTGA [3d1148]” belongs 0.801; to “TATCATTTCGTAAGACCTTTGGATGGGTTGA [3d1147]”, 0.775; to “TATCATTTCGTAAGCACTTTGGATGGGTTGA [3d1145]”, 0.786.
“TATCATTTCGTAGACACTTTGGATGGGTTGA [3d1143]” came in with a fraction ligated of 0.802.
In turn, “TATCATTTCTAAGACACTTTGGATGGGTTGA [3d1141]” showed a fraction ligated of 0.786.
For “TATCATTTGTAAGACACTTTGGATGGGTTGA [3d1140]”, the fraction ligated was found to be 0.803.
TATCCGTCGTAAGACACTTTGGATGGGTTGA [3d949] returned a fraction ligated of 0.798.
The figure for TATCCTGCGTAAGACACTTTGGATGGGTTGA [3d951] is 0.786.
As for TATCCTGTCGAAGACACTTTGGATGGGTTGA [3d954], the fraction ligated turned out to be 0.786.
Regarding TATCCTGTCGTAAACACTTTGGATGGGTTGA [3d956], the fraction ligated turned out to be 0.796.
Turning to TATCCTGTCGTAAGAACTTTGGATGGGTTGA [3d958], the fraction ligated turned out to be 0.803.
Consider TATCCTGTCGTAAGACACTTGGATGGGTTGA [3d961], for which the fraction ligated was 0.794.
Turning to TATCCTGTCGTAAGACACTTTGATGGGTTGA [3d962], the fraction ligated came out at 0.754.
In the case of TATCCTGTCGTAAGACACTTTGGAGGGTTGA [3d964], the fraction ligated worked out at 0.0143.
Turning to TATCCTGTCGTAAGACACTTTGGATGGGTTA [3d966], the fraction ligated was found to be 0.436.
The sequence TATCCTGTCGTAAGACACTTTGGATGGGTTG [3d967] registered a fraction ligated of 0.76.
TATCCTGTCGTAAGACACTTTGGATGGGTTGA [2d90] gave a fraction ligated of 0.788.
Sequence TATCCTGTCGTAAGACACTTTGGATGGTTGA [3d965] gave a fraction ligated of 0.038.
With TATCCTGTCGTAAGACACTTTGGTGGGTTGA [3d963], the fraction ligated amounted to 0.274.
To TATCCTGTCGTAAGACATTTGGATGGGTTGA [3d960] belongs 0.766; to TATCCTGTCGTAAGACCTTTGGATGGGTTGA [3d959], 0.772.
TATCCTGTCGTAAGCACTTTGGATGGGTTGA [3d957] yielded a fraction ligated of 0.783.
The figure for TATCCTGTCGTAGACACTTTGGATGGGTTGA [3d955] is 0.779; for TATCCTGTCTAAGACACTTTGGATGGGTTGA [3d953] it is 0.785.
Sequence TATCCTGTGTAAGACACTTTGGATGGGTTGA [3d952] showed a fraction ligated of 0.791.
The sequence TATCCTTCGTAAGACACTTTGGATGGGTTGA [3d950] displayed a fraction ligated of 0.798.
The figure for TATCCTTGCGAAGACACTTTGGATGGGTTGA [3d986] is 0.806; for TATCCTTGCGTAAACACTTTGGATGGGTTGA [3d988] it is 0.807; for TATCCTTGCGTAAGAACTTTGGATGGGTTGA [3d990] it is 0.832.
TATCCTTGCGTAAGACACTTGGATGGGTTGA [3d993] registered a fraction ligated of 0.75.
Regarding TATCCTTGCGTAAGACACTTTGATGGGTTGA [3d994], the fraction ligated came out at 0.815.
Sequence TATCCTTGCGTAAGACACTTTGGAGGGTTGA [3d996] had a fraction ligated of 0.0215.
Sequence TATCCTTGCGTAAGACACTTTGGATGGGTTA [3d998] showed a fraction ligated of 0.403.
TATCCTTGCGTAAGACACTTTGGATGGGTTG [3d999]: the fraction ligated was 0.791.
To TATCCTTGCGTAAGACACTTTGGATGGGTTGA [2d92] belongs 0.803; to TATCCTTGCGTAAGACACTTTGGATGGTTGA [3d997], 0.0475; to TATCCTTGCGTAAGACACTTTGGTGGGTTGA [3d995], 0.131.
The sequence TATCCTTGCGTAAGACATTTGGATGGGTTGA [3d992] came in with a fraction ligated of 0.792.
The sequence TATCCTTGCGTAAGACCTTTGGATGGGTTGA [3d991] registered a fraction ligated of 0.792.
In the case of TATCCTTGCGTAAGCACTTTGGATGGGTTGA [3d989], the fraction ligated came to 0.775.
TATCCTTGCGTAGACACTTTGGATGGGTTGA [3d987] came in with a fraction ligated of 0.799.
TATCCTTGCTAAGACACTTTGGATGGGTTGA [3d985] showed a fraction ligated of 0.764.
In the case of TATCCTTGGTAAGACACTTTGGATGGGTTGA [3d984], the fraction ligated turned out to be 0.796.
Regarding “TATCCTTGTCAAGACACTTTGGATGGGTTGA [3d1015]”, the fraction ligated turned out to be 0.791.
“TATCCTTGTCGAAACACTTTGGATGGGTTGA [3d1030]”: the fraction ligated stood at 0.81.
For the sequence “TATCCTTGTCGAAGAACTTTGGATGGGTTGA [3d1032]”, the fraction ligated turned out to be 0.772.
In turn, “TATCCTTGTCGAAGACACTTGGATGGGTTGA [3d1035]” showed a fraction ligated of 0.775.
In the case of “TATCCTTGTCGAAGACACTTTGATGGGTTGA [3d1036]”, the fraction ligated is 0.781.
Take “TATCCTTGTCGAAGACACTTTGGAGGGTTGA [3d1038]”: the fraction ligated is 0.016.
“TATCCTTGTCGAAGACACTTTGGATGGGTTA [3d1040]” came in with a fraction ligated of 0.404.
The sequence “TATCCTTGTCGAAGACACTTTGGATGGGTTG [3d1041]” yielded a fraction ligated of 0.783.
In turn, TATCCTTGTCGAAGACACTTTGGATGGGTTGA [2d95] displayed a fraction ligated of 0.806.
With “TATCCTTGTCGAAGACACTTTGGATGGTTGA [3d1039]”, the fraction ligated came to 0.0395.
Turning to “TATCCTTGTCGAAGACACTTTGGTGGGTTGA [3d1037]”, the fraction ligated amounted to 0.181.
The figure for “TATCCTTGTCGAAGACATTTGGATGGGTTGA [3d1034]” is 0.79.
The figure for “TATCCTTGTCGAAGACCTTTGGATGGGTTGA [3d1033]” is 0.747; for “TATCCTTGTCGAAGCACTTTGGATGGGTTGA [3d1031]” it is 0.775.
For “TATCCTTGTCGAGACACTTTGGATGGGTTGA [3d1029]”, the fraction ligated stood at 0.793.
As for “TATCCTTGTCGTAAAACTTTGGATGGGTTGA [3d1055]”, the fraction ligated came to 0.792.
To “TATCCTTGTCGTAAACACTTGGATGGGTTGA [3d1058]” belongs 0.721.
Regarding “TATCCTTGTCGTAAACACTTTGATGGGTTGA [3d1059]”, the fraction ligated came out at 0.758.
Turning to “TATCCTTGTCGTAAACACTTTGGAGGGTTGA [3d1061]”, the fraction ligated came out at 0.0122.
Sequence “TATCCTTGTCGTAAACACTTTGGATGGGTTA [3d1063]” registered a fraction ligated of 0.416.
As to “TATCCTTGTCGTAAACACTTTGGATGGGTTG [3d1064]”, the fraction ligated was 0.805.
“TATCCTTGTCGTAAACACTTTGGATGGTTGA [3d1062]” had a fraction ligated of 0.0319.
“TATCCTTGTCGTAAACACTTTGGTGGGTTGA [3d1060]” registered a fraction ligated of 0.0666.
“TATCCTTGTCGTAAACATTTGGATGGGTTGA [3d1057]” returned a fraction ligated of 0.771.
Turning to “TATCCTTGTCGTAAACCTTTGGATGGGTTGA [3d1056]”, the fraction ligated came to 0.766.
The sequence “TATCCTTGTCGTAACACTTTGGATGGGTTGA [3d1043]” displayed a fraction ligated of 0.81.
For the sequence “TATCCTTGTCGTAAGAACTTGGATGGGTTGA [3d1076]”, the fraction ligated worked out at 0.591.
“TATCCTTGTCGTAAGAACTTTGATGGGTTGA [3d1077]” registered a fraction ligated of 0.8.
Sequence “TATCCTTGTCGTAAGAACTTTGGAGGGTTGA [3d1079]” had a fraction ligated of 0.00912.
The figure for “TATCCTTGTCGTAAGAACTTTGGATGGGTTA [3d1081]” is 0.351.
In turn, “TATCCTTGTCGTAAGAACTTTGGATGGGTTG [3d1082]” showed a fraction ligated of 0.779.
In the case of “TATCCTTGTCGTAAGAACTTTGGATGGTTGA [3d1080]”, the fraction ligated came to 0.0325.
Consider “TATCCTTGTCGTAAGAACTTTGGTGGGTTGA [3d1078]”, for which the fraction ligated was 0.0718.
The sequence “TATCCTTGTCGTAAGAATTTGGATGGGTTGA [3d1075]” had a fraction ligated of 0.79.
“TATCCTTGTCGTAAGACACTGGATGGGTTGA [3d1097]” returned a fraction ligated of 0.756.
The figure for “TATCCTTGTCGTAAGACACTTGATGGGTTGA [3d1098]” is 0.745; for “TATCCTTGTCGTAAGACACTTGGAGGGTTGA [3d1100]” it is 0.00692; for “TATCCTTGTCGTAAGACACTTGGATGGGTTA [3d1102]” it is 0.402.
“TATCCTTGTCGTAAGACACTTGGATGGGTTG [3d1103]” returned a fraction ligated of 0.742.
As for “TATCCTTGTCGTAAGACACTTGGATGGTTGA [3d1101]”, the fraction ligated came out at 0.0445.
With “TATCCTTGTCGTAAGACACTTGGTGGGTTGA [3d1099]”, the fraction ligated amounted to 0.265.
As for “TATCCTTGTCGTAAGACACTTTATGGGTTGA [3d1104]”, the fraction ligated was 0.0278.
To “TATCCTTGTCGTAAGACACTTTGAGGGTTGA [3d1106]” belongs 0.0265; to “TATCCTTGTCGTAAGACACTTTGATGGGTTA [3d1108]”, 0.644; to “TATCCTTGTCGTAAGACACTTTGATGGGTTG [3d1109]”, 0.749.
“TATCCTTGTCGTAAGACACTTTGATGGTTGA [3d1107]” gave a fraction ligated of 0.054.
In the case of “TATCCTTGTCGTAAGACACTTTGGAGGGTTA [3d1115]”, the fraction ligated was 0.00568.
The sequence “TATCCTTGTCGTAAGACACTTTGGAGGGTTG [3d1116]” had a fraction ligated of 0.00286.
The figure for “TATCCTTGTCGTAAGACACTTTGGAGGTTGA [3d1114]” is 0.00283.
As to “TATCCTTGTCGTAAGACACTTTGGATGGGTT [3d1119]”, the fraction ligated came to 0.0366.
“TATCCTTGTCGTAAGACACTTTGGATGGGTTA [2d107]” came in with a fraction ligated of 0.401.

The record behind these values is the supplement of paper PMC6755084.
